Measurements published in the supplement of paper PMC9170038.

Test system: MS2 coat protein
Assay: apparent KD of MS2 coat protein; higher = weaker reporter binding
Details: Eterna round: R107; input ligand: theophylline 2 mM
In short: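 Designed RNA switches were made by on-chip transcription from Illumina sequencing clusters and then titrated with SNAP-549-labelled MS2 coat protein. Twofold steps ran from 0.7 or 1.5 nM to 3 µM, each lasting 0.8–1.5 h early and 10–20 min late, in 100 mM Tris-HCl pH 7.5, 80 mM KCl, 4 mM MgCl2, without or with constant ligand. Apparent KD is the per-design median of normalised cluster binding-curve fits.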

Going from “GGCCCGGACUUGGAAUGGGUGUUUCCUUCACGAGGACCGGUACGGCCGCCACUCGAAGACAUGAGGAUCACCCAUGUAGUCGACC [Soleti]” to “GGGCAAGAGGGAAGGAGCGUCGGCUGGGUAACAUGAGGAUCACCCAUGUAGCACAUGGUGUGGCAGGUAGGUCGCCCUCUGCCCU [SS-ArgB9]”, the “apparent KD of MS2 coat protein” value rises from 0.0411 µM to 0.133 µM (3.2-fold).

First: GCAUCCUAGUCGGCCGCCACUGCAACAUGAGGAUCACCCAUGUCUGCAUCUUCAUGAUGCAGUAGCAGGACCGGGACUAGGAUGC [(T1)-(M1)-(M2)-(T)''-(M)'-(T)'-(T2)_Design1_2/18/17]
Second: AUACAUGAGGAUCACCCAUGUCACACAGAAGGAGCGGCUGUAGAGCCAGGUAGGUCGCUGUACUGAAAAUACUUCAUACUCAUGU [#30 Exclusion - Arginine A]
The “apparent KD of MS2 coat protein” value of the first is 7.5-fold higher: 0.242 µM for the first, 0.0323 µM for the second.

“AGAUUUAUUUUGACCGGGCUCAUUCCUGAAGGAGCGCAGAACAAUGCAGGUAGGUCGCAGGACAUGAGGAUCACCCAUGUCAAGC [Isaes]” and “GGUGGCGGGACUGAUACCAGCCACCACCGAUAGACCACAUGAGGAUCACCCAUGUUGGGUGGCCCUUGGCAGCAGUCUUGCGUCG [#1 Same State - Theophylline B Attempt #16 (HarryS)]” are within 1.5-fold of each other in “apparent KD of MS2 coat protein” value: 0.0199 µM for the first, 0.021 µM for the second.

Same assay, conditions: Eterna round: R107; input ligand: tryptophan 2.4 mM

“ACAUGAGGAUCACCCAUGUAUUCAUCAGAAGGAGCGUGGAAUAACACAGGUAGGUCGCUGAUUAUUUGUUAAAUAAAUUCGUGUA [JR_Nu_SSArginiA_Sub023]” and “UAUAUAUAUAGGGAUACCAGCAGAGAAAACGUUUAUCCUAACAUGAGGAUCACCCAUGUAUGCCCUUGGCAGCUUUAUAUAUAUA [8.F]” are within 1.5-fold of each other in “apparent KD of MS2 coat protein” value: 0.0164 µM for the first, 0.024 µM for the second.

Going from “AGAGUUAGACAAAAGUCUAGCUCACCAGAAGGAGCGUCCGAAAGGACAGGUAGGUCGCUGGUGCAUGAGGAUCACCCAUGUUCCU [ArgAS 20 #OpenEnded #AlternativeMS2]” to “AAUAUAUAUCACGAACUGUGGUGUAUGUUGCGAGGACCGGUACGGCCGCCACUCGGCCGGUGGUACAUGAGGAUCACCCAUGUUG [XTryp A #9]”, the “apparent KD of MS2 coat protein” value falls from 0.15 µM to 0.0282 µM (5.3-fold).

Compared with “CUCAUCCACGCGGCCGCCACUAUAUUGUGGUGUGAAUGUGACGUAUUACAAGAGGAUCACCCUUGUAGGACCGGGCGUGGAUGAG [Tryp B Ex Mod1]”, “ACGUCUCGAAAACUCGUAGUAACUAUAGAUACCAGUAGCGAGAGUUACCCUUGGCAGCUACAUGAGGAUCACCCAUGUACGAGGA [XTheo A #28]” is 9.7-fold lower in “apparent KD of MS2 coat protein” value: 0.147 µM for the first, 0.0151 µM for the second.

Going from “AUCGUACCUGAUGAUACCAGCAUGUGCUCGUAACAUGAGGAUCACCCAUGUGAUCAGUAAUGCCCUUGGCAGCAUGAUCGGUACA [Same State - Theophylline B (Freestyle 17)]” to “AGGACGGUCGGAAGGAGCGGUACAUGAGGAUCACCCAUGUACCUCUGGGCAUCCGUAGUGUGCCAGGUAGGUCGCCGAUUGCGGG [Lareerra]”, the “apparent KD of MS2 coat protein” value falls from 0.0508 µM to 0.0118 µM (4.3-fold).

Going from “GCUAGGUCUACGGCCGCCACUAGACGUGGGUAAGACAUGAGGAUCACCCAUGUACUACGGGCGAUUAGGACCGGGUAGACCUAGC [SSTB NP+V+V2 #16 Same Structure]” to “GGGCCCGGGCGCGAGCCCGGGCCCAUUGAUACCAGUGAAAAUAUACGCCCUUGGCAGCGAAUCCUAACAUGAGGAUCACCCAUGU [5.A]”, the “apparent KD of MS2 coat protein” value falls from 0.0669 µM to 0.0334 µM (2-fold).

First: AGUCUUAUAGGAAGGAGCGCAAUCAUAACAUGAGGAUCACCCAUGUCGAGGUGAGGGUCAUUGCAGGUAGGUCGCCUAACUAAGA [Same State - Arginine B (Freestyle 8)]
Second: UGACGAGGCCUGGAUACCAGCGACAUGAGGAUCACCCAUGUAUGAGGAUCAGCCAUGUUAUGCCCUUGGCAGCCACGAAGGUCAG [WQQMULLIN]
The “apparent KD of MS2 coat protein” value of the first is 4.2-fold higher: 0.0965 µM for the first, 0.0229 µM for the second.

Compared with “UGUAUGGACUGAAGGAGCGGGUAAUAAACCUGAGGAUCACCCAGGUAAUAGGCGAAAGCCGCCCAGGUAGGUCGCAGUCCAUACU”, “GAUGAUAUUGCAGAUACCAGACACAUGAGGAUCACCCAUGUCGCUGAGUUGCUGGAUCGUGUCCCUUGGCAGCUGCGAUAUCAUC [Belgium]” is 1.6-fold higher in “apparent KD of MS2 coat protein” value: 0.0125 µM for the first, 0.0197 µM for the second.

“UCGUGUAUAUCGGAUACCAGUGAGAAGGAUACAUGAGGAUCACCCAUGUGAGUUGAUGUACACCCUUGGCAGCUGUAUAUAUCUA [.plullin]” and “ACAUGAGGAUCACCCAUGUACAUGAGGGAAGGAGCGGUACAUGAGCCAGGUAGGUCGCCCAUGAGCAUCAGGCAUGUACAUCAGC [kokmmullin]” are within 1.5-fold of each other in “apparent KD of MS2 coat protein” value: 0.0479 µM for the first, 0.0566 µM for the second.

“AGAUGACACAGUGGAUAGCAAGAUGCCGAUACCAGCUAGGAAACUAGCCCUUGGCAGCGGUACAUGAGGAUCACCCAUGUAUCCU [EThA NP+V+V2 #10]” and “ACCUCACUCUCUGAUACCAGCUAAUAACAUGAGGAUCACCCAUGUCAGACUUGUAUUGAUAGCCCUUGGCAGCAGAGGUAACUGC [Theo B Ex t2]” are within 1.5-fold of each other in “apparent KD of MS2 coat protein” value: 0.0134 µM for the first, 0.0106 µM for the second.

Going from “AGACAUGAGGAUCACCCAUGUAGUACGGAUACCAGAUCCAGAUGCGUCCCUUGGCAGCUGUGGUACAGCGUUACAUCGCUCGUAG [Exclusion - Theophylline A (Freestyle 23)]” to “GCCAGUCAUAGCAGGGCAAAUAUACUCGAAGGAGCGUCAUAGUAGGCAGGUAGGUCGCGAGACAUGAGGAUCACCCAUGUAGAGA [fffmullin]”, the “apparent KD of MS2 coat protein” value rises from 0.0186 µM to 0.0328 µM (1.8-fold).

“GGCCCGGACUUGGAAUGGGUGUUUCCUUCACGAGGACCGGUACGGCCGCCACUCGAAGACAUGAGGAUCACCCAUGUAGUCGACC [Soleti]” and “CAGCCUGAUUGGUAAAUCCCUCAUCGUGAUACCAGUCGAGUGAUCGACCCUUGGCAGCACAUGAGGAUCACCCAUGUGCGCGUAA [Raisener]” are within 1.5-fold of each other in “apparent KD of MS2 coat protein” value: 0.0182 µM for the first, 0.024 µM for the second.

Compared with “GGGCAAGAGGGAAGGAGCGUCGGCUGGGUAACAUGAGGAUCACCCAUGUAGCACAUGGUGUGGCAGGUAGGUCGCCCUCUGCCCU [SS-ArgB9]”, “ACCAUGUAAUCAGAUACCAGACAUCUUUUAAAUCAUAUUACAUGAGGAUCACCCAUGUUGGUCCCUUGGCAGCUGAAAUAUUUCA [JR_Nu_SSTheophyB_Sub025]” is 5.1-fold higher in “apparent KD of MS2 coat protein” value: 0.103 µM for the first, 0.529 µM for the second.

Compared with “UCGUGUAUAACGGAUACCAGUGAGAAGGAUACAUGAGGAUCACCCAUGUGAGUUGAUCCACACCCUUGGCAGCUGUAUAUAUCUA [alamullin]”, “AUACAUGAGGAUCACCCAUGUCACACAGAAGGAGCGGCUGUAGAGCCAGGUAGGUCGCUGUACUGAAAAUACUUCAUACUCAUGU [#30 Exclusion - Arginine A]” is 11-fold lower in “apparent KD of MS2 coat protein” value: 0.29 µM for the first, 0.0261 µM for the second.

Going from “AGAUUUAUUUUGACCGGGCUCAUUCCUGAAGGAGCGCAGAACAAUGCAGGUAGGUCGCAGGACAUGAGGAUCACCCAUGUCAAGC [Isaes]” to “ACGAUAGGACAUGAGGAUCACCCAUGUGAUACCAGCCUGGAAACAGGCCCUUGGCAGCACAAAUACUCCAGAAACCUAUCGAAAA [MAT - Exclusion Theophlline A - Mod of Eli - D5]”, the “apparent KD of MS2 coat protein” value rises from 0.0188 µM to 0.337 µM (18-fold).

“CAUGGGUGGUAUCACCCAUCCAUAGGUGAUACCAGCAUCGAAAGAUGCCCUUGGCAGCACCAACAUGAGGAUCACCCAUGUAAUA [(M)'-(T)'-(M)''-(T1)-(T2)-(M1)-(M2)_Design2]” and “GGUGGCGGGACUGAUACCAGCCACCACCGAUAGACCACAUGAGGAUCACCCAUGUUGGGUGGCCCUUGGCAGCAGUCUUGCGUCG [#1 Same State - Theophylline B Attempt #16 (HarryS)]” are within 1.5-fold of each other in “apparent KD of MS2 coat protein” value: 0.354 µM for the first, 0.323 µM for the second.

With “AGUACUCGAACGGAUACCAGCCGGACAUGAGGAUCACCCAUGUCCUACCUCUGUUCGGUUGGCCCUUGGCAGCCGUUCGUGUACA [Omei Theo B SS A v7]” the “apparent KD of MS2 coat protein” value was 0.128 µM.
